Source: patent publication US20110287948A1, “MEASUREMENT OF MATERIAL PROPERTIES AND RELATED METHODS AND COMPOSITIONS BASED ON CYTOADHERENCE” (Massachusetts Institute of Technology, priority 2010, published 2011)

How the values were obtained:
[1] = system: Acute promyelocytic leukemia cells; conditions: cells induced to differentiate down the neutrophil lineage for three days; cited from earlier work
[2] = system: WAS−/− T cells; assay: In vitro Transwell cell migration toward CCL19, WAS-/- T cells; type: cell-based, mouse (WAS−/− on Balb/c background); conditions: seven hours of exposure to CCL19 (100 ng/mL), 5-μm pore inserts
Procedure: Cells from the peripheral lymph nodes and the spleen of Balb/c mice and WAS−/− mice on Balb/c background were pooled and enriched using the EasySep Mouse CD8+ T Cell Enrichment Kit from STEMCELL Technologies (British Columbia, Canada). Enrichment was confirmed using fluorescence-activated cell sorting (FACS) by staining the cells with FITC/anti-Thy1.2 and PE/anti-CD8a antibodies (Abs). The memory T cell population was assessed by evaluating the expression of CD44 and CD62L via FACS. T cells in an activation medium with 100 units/mL IL-2 and 1% anti-CD28 Ab were activated by plate-bound anti-CD3 Abs for 4 day at 37° C. The activation medium included RPMI with 10% FBS, 10 mM HEPES (1M), 1% NEAA, 1% sodium pyruvate (100 mM), […] (3-mercaptoethanol, 4 mM L-glutamine, and 100 μg/mL Pen/Strep. Cell activation was verified via FACS measurement of CD25. Enriched WT and WAS−/− T cells in DMEM with 1% BSA and 0.1% Pen/Strep were induced to migrate through polycarbonate Transwell inserts (Costar, Cambridge, Mass.) with 5-μm pores in a 24-well plate toward a CCL19 chemokine source (R&D Systems, Minneapolis, Minn.). Inserts contained 5×10^5 cells in 100 μL of medium, and wells contained 1 mL of medium with either no CCL19 or 100 ng/mL of CCL19. Cells were allowed to migrate for ˜7 hours at 37° C., and those that crossed the membrane were collected and used for MPA studies.

[3] = system: WT T cells; assay: Micropipette aspiration of CCL19-stimulated migratory WT T cells; type: cell-based, mouse (Balb/c)
Procedure: (§1) Micropipettes made using a micropipette puller were trimmed to 2.5-3 or 4.5-5 μm inner diameter for testing naïve and activated T cells. MPA glass chambers consisted of a 24 mm×60 mm microscope coverslip bottom, a U-shaped parafilm spacer, and a 22 mm×22 mm microscope coverslip top. The assembly was baked for two hours at 80° C. to ensure good adhesion between the components.
(§2) Enriched WT and WAS−/− T cells in DMEM with 1% BSA and 0.1% Pen/Strep were induced to migrate through polycarbonate Transwell inserts (Costar, Cambridge, Mass.) with 5-μm pores in a 24-well plate toward a CCL19 chemokine source (R&D Systems, Minneapolis, Minn.). Inserts contained 5×10^5 cells in 100 μL of medium, and wells contained 1 mL of medium with either no CCL19 or 100 ng/mL of CCL19. Cells were allowed to migrate for ˜7 hours at 37° C., and those that crossed the membrane were collected and used for MPA studies.
(§3) 3×10^5 cells in 100 μL RPMI with 10% FBS and 1% HEPES was stained with 10 μL trypan blue. The mixture was added to 600 μL of either the RPMI medium or the T cell activation medium with IL-2 for naïve and activated T cell testing. Migratory T cells were tested in the medium used for migration. The MPA device was based on the design of Hochmuth et al (18). The aspiration rate and volume were 36 mL/hr and 2 mL, corresponding to a total pressure of ˜400 Pa. The cell movement in the micropipette was recorded with a CCD camera. Aspirations were performed at approximately room temperature.
MPA data were fitting using the half-space model (77) described by the expressions:
where E is the cell modulus, L is the length from the micropipette opening to the cell leading edge, Δp is the pressure differential at a particular L, ri and ro are the inner and outer […] of the micropipette, and φ is the wall function that is approximately […]. The ImageJ software was used to manually track the change in L. By plotting Δp against ri/L and finding the best linear fit (minimal total error) a modulus could be derived from the slope of the line. […]

[4] = system: WAS−/− T cells; assay: Micropipette aspiration of CCL19-stimulated migratory WAS-/- T cells; type: cell-based, mouse (WAS−/− on Balb/c background); conditions: naïve WAS−/− T cells that migrated in response to CCL19
Procedure: as §1, §2
as §3, with “The aspiration rate and volume were 36 mL/hr and 2 mL, corresponding to a total pressure of ˜400 Pa.” left out, “Aspirations were performed at approximately room temperature.” left out

[5] = system: WT T cells; assay: FACS analysis of phenotype (CD62L/CD44) of WT T cells induced to migrate by CCL19; type: cell-based, mouse (Balb/c); conditions: WT cells that migrated after CCL19 exposure
Procedure: FIG. 68 depicts results of a FACS analysis of phenotype of naïve WT T cells induced to migrate by the chemokine CCL19. T cells were first gated on PI to exclude dead cells. The cell samples tested were naïve T cells not exposed to CCL 19 (A, D), cells that remained in the insert after CCL19 exposure (100 ng/mL) for seven hours (B, E), and cells that migrated across the insert membrane after the same chemokine treatment (C, F).
Cells from the peripheral lymph nodes and the spleen of Balb/c mice and WAS−/− mice on Balb/c background were pooled and enriched using the EasySep Mouse CD8+ T Cell Enrichment Kit from STEMCELL Technologies (British Columbia, Canada). Enrichment was confirmed using fluorescence-activated cell sorting (FACS) by staining the cells with FITC/anti-Thy1.2 and PE/anti-CD8a antibodies (Abs). The memory T cell population was assessed by evaluating the expression of CD44 and CD62L via FACS. T cells in an activation medium with 100 units/mL IL-2 and 1% anti-CD28 Ab were activated by plate-bound anti-CD3 Abs for 4 day at 37° C. The activation medium included RPMI with 10% FBS, 10 mM HEPES (1M), 1% NEAA, 1% sodium pyruvate (100 mM), […] (3-mercaptoethanol, 4 mM L-glutamine, and 100 μg/mL Pen/Strep. Cell activation was verified via FACS measurement of CD25. […]

Molecule: CC1=C(/C=C/C(C)=C/C=C/C(C)=C/C(=O)O)C(C)(C)CCC1 [all-trans retinoic acid]
- more compliant than the control (creep compliance) [1]: 45%

B1: CCL19: chemokine CCL19 (R&D Systems) used as chemoattractant for T cells (protein, UniProt Q99731 22-98, looked up)
C-C motif chemokine 19: GTNDAEDCCLSVTQKPIPGYIVRNFHYLLIKDGCRVPAVVFTTLRGRQLCAPPDQPWVERIIQRLQRTSAKMKRRSS
- cells migrated [2]: ~6.4%
- stiffness compared to activated cells ([3]; migratory WT cells vs activated WT T cells): about 1.4 times
- modulus reduction from the value measured in the absence of CCL19 ([3]; migratory WT cells vs untreated naïve WT cells): more than 2 times
- apparent Young's modulus (mean+/−SD) ([3]; naïve WT T cells that migrated in response to CCL19): 128+/−33 Pa
- apparent Young's modulus (mean+/−SD) [4]: 152+/−102 Pa
- migrating cells stained CD62L high and CD44 low (naïve phenotype) [5]: ~90%
